Paper PMC5410052
pKi: −log10 of the molar value.

Legend:
[1] = target: human MMP-7 (matrilysin) (human) (UniProt P09237); assay: enzyme inhibition assay (quenched fluorescent peptide substrate); 60/60/250/500 nM MMP-1/-2/-7/-14cd incubated with 0.98-1000 nM (N-)TIMPs for 30 min at room temperature, then 1 uM M-2350 substrate; KI from the equation for slow tight-binding inhibitors
[2] = target: human MMP-1 (collagenase 1) (human) (UniProt P03956); assay: as above
[3] = target: human MMP-2 (gelatinase A) (human) (UniProt P08253); assay: as above
Sequence of UniProt P08253 (P08253 110-660): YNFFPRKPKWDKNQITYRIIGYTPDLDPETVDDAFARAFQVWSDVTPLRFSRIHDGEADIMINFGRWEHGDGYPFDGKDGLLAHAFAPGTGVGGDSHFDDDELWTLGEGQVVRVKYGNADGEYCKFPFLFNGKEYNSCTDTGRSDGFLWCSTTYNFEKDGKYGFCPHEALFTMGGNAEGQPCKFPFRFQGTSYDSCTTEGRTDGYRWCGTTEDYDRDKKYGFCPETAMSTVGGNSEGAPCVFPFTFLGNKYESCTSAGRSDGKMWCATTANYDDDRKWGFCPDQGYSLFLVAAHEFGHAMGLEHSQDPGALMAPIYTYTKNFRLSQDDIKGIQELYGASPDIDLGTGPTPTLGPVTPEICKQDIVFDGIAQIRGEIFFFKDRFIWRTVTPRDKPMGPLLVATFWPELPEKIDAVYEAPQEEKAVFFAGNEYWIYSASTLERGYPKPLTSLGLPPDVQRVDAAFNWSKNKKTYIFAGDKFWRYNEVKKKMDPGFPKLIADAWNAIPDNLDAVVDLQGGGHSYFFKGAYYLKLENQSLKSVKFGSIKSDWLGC

[4] = target: catalytic domain of human MMP-14 (cdMMP-14) (human) (UniProt P50281); assay: as above
[5] = target: catalytic domain of human MMP-14 (cdMMP-14) (human) (UniProt P50281)
[6] = target: human MMP-7 (matrilysin) (human) (UniProt P09237)
[7] = target: human MMP-1 (collagenase 1) (human) (UniProt P03956)
[8] = target: human MMP-2 (gelatinase A) (human) (UniProt P08253)

Sequence of UniProt P09237 (P09237 95-267): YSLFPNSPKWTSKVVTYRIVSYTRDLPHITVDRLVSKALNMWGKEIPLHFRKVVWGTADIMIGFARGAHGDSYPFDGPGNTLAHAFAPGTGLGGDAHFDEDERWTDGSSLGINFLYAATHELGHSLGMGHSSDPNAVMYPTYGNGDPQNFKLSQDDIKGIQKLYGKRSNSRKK
Sequence of UniProt P03956 (P03956 100-469): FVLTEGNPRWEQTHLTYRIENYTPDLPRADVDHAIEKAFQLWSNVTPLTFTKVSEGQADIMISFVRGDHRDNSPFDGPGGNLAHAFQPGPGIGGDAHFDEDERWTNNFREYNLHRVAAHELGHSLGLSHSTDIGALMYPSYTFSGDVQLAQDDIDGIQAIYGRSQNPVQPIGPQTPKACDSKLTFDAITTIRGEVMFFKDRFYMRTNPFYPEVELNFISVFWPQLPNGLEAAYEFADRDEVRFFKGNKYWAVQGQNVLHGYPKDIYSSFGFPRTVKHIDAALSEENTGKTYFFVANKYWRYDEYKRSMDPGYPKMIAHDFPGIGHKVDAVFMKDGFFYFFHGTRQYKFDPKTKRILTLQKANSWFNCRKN

Substance	pKi [1]	pKi [2]	pKi [3]	pKi [4]	IC50 of inhibition of cdMMP-14 cleavage of a quenched fluorescent peptide substrate [5] [nM]	IC50 of inhibition of MMP-7 cleavage of a quenched fluorescent peptide substrate [6] [nM]	IC50 of inhibition of MMP-1 cleavage of a quenched fluorescent peptide substrate [7] [nM]	IC50 of inhibition of MMP-2 cleavage of a quenched fluorescent peptide substrate [8] [nM]
N-terminal domain of human TIMP-1 (N-TIMP-1) (domain or fragment)	8.34	8.14	7.96					
N-terminal domain of human TIMP-2 (N-TIMP-2) (domain or fragment)	8.54	9.19	9.10	8.40	72	38	3	6
